Measurements from patent US20220040297A1 (Chugai, published 2022).
Residue numbers refer to the chain shown, from its start.

B1: GLS3000 K50L (antibody, name in Kabat numbering, V domains shown)
VH: QVQLVESGGGVVQPGRSLRLSCAASGFTFSNAWMHWVRQAPGKGLEWVAQIKAKSNNYATYYAESVKGRFTISRDDSKNSLYLQMNSLKTEDTAVYYCRYVHYGAYYGVDAWGQGTTVTVSS
VL: DIVMTQSPLSLPVTPGEPASISCRSSQSLVHSNRNTYLHWYQQKPGQAPRLLIYLVSNRFSGVPDRFSGSGSGTDFTLKISRVEAEDVGVYYCGQGTQVPYTFGQGTKLEIK
notes: one-arm format as m2
B2: GLS3000 N28I (antibody, name in Kabat numbering, V domains shown)
VH: B1 VH
VL: B1 VL with N33I, L55K
notes: one-arm format as m2
B3: GLS3000 L27bY (antibody, name in Kabat numbering, V domains shown)
VH: B1 VH
VL: B1 VL with L29Y, L55K
notes: one-arm format as m2
B4: GLS3000 K50Q (antibody, name in Kabat numbering, V domains shown)
VH: B1 VH
VL: B1 VL with L55Q
notes: one-arm format as m2
B5: GLS3000 K50P (antibody, name in Kabat numbering, V domains shown)
VH: B1 VH
VL: B1 VL with L55P
notes: one-arm format as m2
B6: GLS3000 K107E (antibody, name in Kabat numbering, V domains shown)
VH: B1 VH
VL: B1 VL with L55K, K112E
notes: one-arm format as m2
B7: GLS3000 N28T (antibody, name in Kabat numbering, V domains shown)
VH: B1 VH
VL: B1 VL with N33T, L55K
notes: one-arm format as m2
B8: GLS3000 L27bD (antibody, name in Kabat numbering, V domains shown)
VH: B1 VH
VL: B1 VL with L29D, L55K
notes: one-arm format as m2
B9: GLS3000 L27bE (antibody, name in Kabat numbering, V domains shown)
VH: B1 VH
VL: B1 VL with L29E, L55K
notes: one-arm format as m2
B10: GLS3000 L27bV (antibody, name in Kabat numbering, V domains shown)
VH: B1 VH
VL: B1 VL with L29V, L55K
notes: one-arm format as m2
B11: GLS3000 L27bW (antibody, name in Kabat numbering, V domains shown)
VH: B1 VH
VL: B1 VL with L29W, L55K
notes: one-arm format as m2
B12: GLS3000 L33V (antibody, name in Kabat numbering, V domains shown)
VH: B1 VH
VL: B1 VL with L38V, L55K
notes: one-arm format as m2
B13: GLS3000 N28P (antibody, name in Kabat numbering, V domains shown)
VH: B1 VH
VL: B1 VL with N33P, L55K
notes: one-arm format as m2
B14: GLS3000 N28F (antibody, name in Kabat numbering, V domains shown)
VH: B1 VH
VL: B1 VL with N33F, L55K
notes: one-arm format as m2
B15: GLS3000 N28E (antibody, name in Kabat numbering, V domains shown)
VH: B1 VH
VL: B1 VL with N33E, L55K
notes: one-arm format as m2
B16: GLS3000 L33P (antibody, name in Kabat numbering, V domains shown)
VH: B1 VH
VL: B1 VL with L38P, L55K
notes: one-arm format as m2
B17: GLS3000 L33I (antibody, name in Kabat numbering, V domains shown)
VH: B1 VH
VL: B1 VL with L38I, L55K
notes: one-arm format as m2
B18: GLS3000 N28K (antibody, name in Kabat numbering, V domains shown)
VH: B1 VH
VL: B1 VL with N33K, L55K
notes: one-arm format as m2
B19: GLS3000 L27bP (antibody, name in Kabat numbering, V domains shown)
VH: B1 VH
VL: B1 VL with L29P, L55K
notes: one-arm format as m2
B20: GLS3000 L33F (antibody, name in Kabat numbering, V domains shown)
VH: B1 VH
VL: B1 VL with L38F, L55K
notes: one-arm format as m2
B21: GLS3000 L27bI (antibody, name in Kabat numbering, V domains shown)
VH: B1 VH
VL: B1 VL with L29I, L55K
notes: one-arm format as m2
B22: GLS3000 L33D (antibody, name in Kabat numbering, V domains shown)
VH: B1 VH
VL: B1 VL with L38D, L55K
notes: one-arm format as m2
B23: GLS3000 K50T (antibody, name in Kabat numbering, V domains shown)
VH: B1 VH
VL: B1 VL with L55T
notes: one-arm format as m2
B24: GLS3000 N28L (antibody, name in Kabat numbering, V domains shown)
VH: B1 VH
VL: B1 VL with N33L, L55K
notes: one-arm format as m2
B25: GLS3000 L33M (antibody, name in Kabat numbering, V domains shown)
VH: B1 VH
VL: B1 VL with L38M, L55K
notes: one-arm format as m2
B26: GLS3000 K50R (antibody, name in Kabat numbering, V domains shown)
VH: B1 VH
VL: B1 VL with L55R
notes: one-arm format as m2
B27: GLS3000 N28W (antibody, name in Kabat numbering, V domains shown)
VH: B1 VH
VL: B1 VL with N33W, L55K
notes: one-arm format as m2
B28: GLS3000 N28S (antibody, name in Kabat numbering, V domains shown)
VH: B1 VH
VL: B1 VL with N33S, L55K
notes: one-arm format as m2
B29: GLS3000 N28M (antibody, name in Kabat numbering, V domains shown)
VH: B1 VH
VL: B1 VL with N33M, L55K
notes: one-arm format as m2
B30: GLS3000 K50Y (antibody, name in Kabat numbering, V domains shown)
VH: B1 VH
VL: B1 VL with L55Y
notes: one-arm format as m2
B31: GLS3000 K50S (antibody, name in Kabat numbering, V domains shown)
VH: B1 VH
VL: B1 VL with L55S
notes: one-arm format as m2
B32: GLS3000 L27bM (antibody, name in Kabat numbering, V domains shown)
VH: B1 VH
VL: B1 VL with L29M, L55K
notes: one-arm format as m2
B33: GLS3000 N28G (antibody, name in Kabat numbering, V domains shown)
VH: B1 VH
VL: B1 VL with N33G, L55K
notes: one-arm format as m2
B34: GLS3000 N28V (antibody, name in Kabat numbering, V domains shown)
VH: B1 VH
VL: B1 VL with N33V, L55K
notes: one-arm format as m2
B35: GLS3000 L27bS (antibody, name in Kabat numbering, V domains shown)
VH: B1 VH
VL: B1 VL with L29S, L55K
notes: one-arm format as m2
B36: GLS3000 N28H (antibody, name in Kabat numbering, V domains shown)
VH: B1 VH
VL: B1 VL with N33H, L55K
notes: one-arm format as m2
B37: GLS3000 N28D (antibody, name in Kabat numbering, V domains shown)
VH: B1 VH
VL: B1 VL with N33D, L55K
notes: one-arm format as m2
B38: GLS3000 K74T (antibody, name in Kabat numbering, V domains shown)
VH: B1 VH
VL: B1 VL with L55K, K79T
notes: one-arm format as m2
B39: GLS3000 L33E (antibody, name in Kabat numbering, V domains shown)
VH: B1 VH
VL: B1 VL with L38E, L55K
notes: one-arm format as m2
B40: GLS3000 L27bF (antibody, name in Kabat numbering, V domains shown)
VH: B1 VH
VL: B1 VL with L29F, L55K
notes: one-arm format as m2
B41: GLS3000 L33A (antibody, name in Kabat numbering, V domains shown)
VH: B1 VH
VL: B1 VL with L38A, L55K
notes: one-arm format as m2
B42: GLS3000 N28A (antibody, name in Kabat numbering, V domains shown)
VH: B1 VH
VL: B1 VL with N33A, L55K
notes: one-arm format as m2
B43: GLS3000 N28Q (antibody, name in Kabat numbering, V domains shown)
VH: B1 VH
VL: B1 VL with N33Q, L55K
notes: one-arm format as m2

biological target: CD3ε homodimer protein (human, UniProt P07766 23-126, limits assumed); assay: SPR, immobilized CD3ε homodimer;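 also: biacore T200 surface plasmon resonance at 25 °C, antibody variants flowed as analytes over amine-coupled CD3ε homodimer on a CM4 chip, variant binding amount divided by that of GLS3000 antibody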
Sequence (P07766 23-126 limits assumed): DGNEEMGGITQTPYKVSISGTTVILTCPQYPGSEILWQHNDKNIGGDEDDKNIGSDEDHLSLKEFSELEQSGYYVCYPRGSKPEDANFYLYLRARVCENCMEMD

Binder | ratio of amounts bound (vs GLS3000)
B1 | 0.24
B2 | 0.44
B3 | 0.25
B4 | 0.18
B5 | 0.3
B6 | 0.94
B7 | 0.45
B8 | 0.17
B9 | 0.17
B10 | 1.12
B11 | 0.26
B12 | 1.05
B13 | 0.36
B14 | 0.46
B15 | 0.4
B16 | 0.3
B17 | 0.83
B18 | 0.44
B19 | 0.91
B20 | 0.78
B21 | 1.19
B22 | 0.17

Binder | ratio of amounts bound (vs GLS3000)
B23 | 0.19
B24 | 0.39
B25 | 0.93
B26 | 0.5
B27 | 0.41
B28 | 0.32
B29 | 0.39
B30 | 0.24
B31 | 0.23
B32 | 0.71
B33 | 0.46
B34 | 0.36
B35 | 0.71
B36 | 0.42
B37 | 0.19
B38 | 0.84
B39 | 0.72
B40 | 0.42
B41 | 0.85
B42 | 0.25
B43 | 0.37
